Experiment [1] concerns the target T1, CD73 on the cell surface of Calu6 cells (UniProt P21589 27-549, limits assumed).
T1 sequence (looked up): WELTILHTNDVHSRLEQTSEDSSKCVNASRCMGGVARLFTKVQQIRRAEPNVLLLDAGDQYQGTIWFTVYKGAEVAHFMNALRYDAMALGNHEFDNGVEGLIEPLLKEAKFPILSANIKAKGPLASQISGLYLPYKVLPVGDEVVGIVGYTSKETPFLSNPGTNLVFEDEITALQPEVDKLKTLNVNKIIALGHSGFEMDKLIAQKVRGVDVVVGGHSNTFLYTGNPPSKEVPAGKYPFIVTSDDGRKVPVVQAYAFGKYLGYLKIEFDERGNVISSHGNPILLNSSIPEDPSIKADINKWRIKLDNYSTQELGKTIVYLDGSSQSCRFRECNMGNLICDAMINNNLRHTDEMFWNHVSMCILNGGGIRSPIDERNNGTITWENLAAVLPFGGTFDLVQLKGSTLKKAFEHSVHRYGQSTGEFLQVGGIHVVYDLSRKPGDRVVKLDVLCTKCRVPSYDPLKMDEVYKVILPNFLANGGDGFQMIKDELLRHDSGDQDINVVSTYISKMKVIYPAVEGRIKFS
The experiment can be described thus: cell-based or functional assay.

Experiment [2] deals with T2, recombinant human CD73 protein (ACRO Biosystems, item No. CD3-H52H7) (human, UniProt P21589 27-547).
T2 construct: also called recombinant CD73 protein
T2 sequence (looked up): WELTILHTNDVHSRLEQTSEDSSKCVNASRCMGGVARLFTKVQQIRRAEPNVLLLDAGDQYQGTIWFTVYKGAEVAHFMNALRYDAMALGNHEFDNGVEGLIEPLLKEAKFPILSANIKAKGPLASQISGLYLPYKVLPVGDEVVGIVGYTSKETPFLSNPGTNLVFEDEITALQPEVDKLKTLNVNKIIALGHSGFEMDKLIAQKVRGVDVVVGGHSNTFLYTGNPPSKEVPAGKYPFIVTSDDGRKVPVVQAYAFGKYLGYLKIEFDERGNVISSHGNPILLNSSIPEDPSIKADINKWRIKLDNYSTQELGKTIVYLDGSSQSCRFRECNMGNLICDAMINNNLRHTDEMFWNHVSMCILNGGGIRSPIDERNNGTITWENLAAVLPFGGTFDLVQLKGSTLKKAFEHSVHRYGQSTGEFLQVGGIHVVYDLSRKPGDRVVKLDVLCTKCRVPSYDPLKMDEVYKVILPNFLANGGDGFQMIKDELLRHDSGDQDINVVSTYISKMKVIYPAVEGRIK
The experiment can be described thus: ELISA, plate coated with CD73 protein, anti-human-IgG-Fc-HRP. As for the experimental part:
The ELISA well plate was coated with 30 ul of 2 ug/ml CD73 protein (ACRO, #CD3-H52H7-100μg) solution and incubated overnight at 4° C. Then, the well plate was washed 3 times with PBST, blocked with 5% MILK/PBS at room temperature for 1 h, and then washed 3 times with PBST. […] The diluted antigen-binding protein solutions were then added to the ELISA well plate, 30 ul per well, and incubated at room temperature for 30 min. After the incubation, the well plate was washed 3 times. Anti-human-IgG-Fc-HRP was added and incubated at room temperature for 50 min. After the incubation, the well plate was washed 3 times. The TMB solution was added. The reaction was then terminated with 2M HCl and the OD450 reading was checked.

For experiment [3], the target named is T3, Mouse CD73/NT5E protein (ACRO Biosystems, item No. CD3-M52H9) (mouse, UniProt Q61503 29-551).
T3 construct: Bought protein
T3 sequence (looked up): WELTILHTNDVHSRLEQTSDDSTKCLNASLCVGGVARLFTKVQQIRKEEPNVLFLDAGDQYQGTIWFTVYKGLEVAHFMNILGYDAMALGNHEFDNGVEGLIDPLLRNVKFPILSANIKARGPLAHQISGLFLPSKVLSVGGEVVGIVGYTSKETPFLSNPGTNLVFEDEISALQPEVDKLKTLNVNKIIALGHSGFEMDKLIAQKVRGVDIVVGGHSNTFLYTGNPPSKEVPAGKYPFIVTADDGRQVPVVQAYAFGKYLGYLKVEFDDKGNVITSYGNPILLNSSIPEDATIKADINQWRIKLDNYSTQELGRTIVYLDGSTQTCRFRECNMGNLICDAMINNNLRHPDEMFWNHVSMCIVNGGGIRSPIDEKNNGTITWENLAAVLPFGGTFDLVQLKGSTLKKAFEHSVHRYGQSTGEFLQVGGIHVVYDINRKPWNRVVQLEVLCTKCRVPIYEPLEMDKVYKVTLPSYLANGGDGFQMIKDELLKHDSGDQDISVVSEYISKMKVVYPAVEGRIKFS
The experiment can be described thus: SPR, Biacore T200, antibody captured on protein A chip, CD73 as analyte. Here is the method:
(§1) In the tests, the assay buffer HBS-EP+ (pH 7.4) and the protein A chip (manufacturer: GE, item No.: 29-1275-56) were used.
(§2) The temperatures of a sample chamber and a flow path were set at 25° C., and the protein A chip respectively captured antigen-binding proteins as ligands and immobilized at about 100 RU. […] After association for 120 s at a flow rate of 30 μL/min, dissociation was carried out for 600 s. Regeneration was then carried out for 60 s with 10 mM Glycine (pH 1.5) at a flow rate of 50 μL/min to implement multi-cycle kinetic detection. A 1:1 binding model was selected for fitting analysis in a Fit local mode to acquire the association rate constant (ka), dissociation rate constant (kd) and dissociation equilibrium rate constant (KD).

Experiment [4] concerns the target T4, Cynomolgus CD73 protein (Novoprotein, item No. CI21) (cynomolgus, UniProt A0A2K5V5U7 27-547).
T4 construct: Bought protein
T4 sequence: T2 sequence (looked up) with M199T, T350A, V466I
The experiment can be described thus: SPR, Biacore T200, antibody captured on protein A chip, cynomolgus CD73 as analyte, 1:1 model. Here is the method: as §1, §2

Numbering of substitutions follows the chain as printed.

B1: 900725 (humanized anti-CD73 antigen-binding protein) (antibody, V domains shown)
VH: QVQLVQSGAEVKKPGASVKLSCKASGYTFTSYWIHWVRQAPGQGLEWIGMIHPNSGSTYYNEKFKGRATLTVDKSTSTAYMELSSLRSEDTAVYYCARYYGSDYEWYFDVWGQGTTVTVSS
VL: DIQMTQSPSSMSASVGDRVTITCKASQNVRTAVVWYQQKPGKAPKALIYLASNRHTGVPDRFSGSGSGTDFTLTISSLQPEDFATYFCLQHWNYPYTFGQGTKLEIK
As for B1, the “Endocytosis rate (%)” value in experiment [1] is 37.5%. In experiment [2], the EC50 is 0.327 mg/L. Moreover, the binding result in experiment [3] is given as “no binding (tested: 50 nM (highest analyte concentration))”. In experiment [4], this molecule registered a Kd of 0.368 nM, an off-rate constant (koff) of 0.000156 s⁻¹ and an on-rate constant (kon) of 425000 M⁻¹ s⁻¹.

B2: 900727 (humanized anti-CD73 antigen-binding protein) (antibody, V domains shown)
VH: B1 VH with L20V, N61A, E62Q, K65Q, A68V, L70I
VL: B1 VL
For the molecule B2, in experiment [2], the EC50 came to 0.364 mg/L. Also, the binding result in experiment [3] was “no binding (tested: 50 nM (highest analyte concentration))”. Moreover, in experiment [4], binding was characterised by a dissociation constant (Kd) of 0.798 nM, the koff stood at 0.00074 s⁻¹ and the kon was 927000 M⁻¹ s⁻¹.

B3: 900726 (humanized anti-CD73 antigen-binding protein) (antibody, V domains shown)
VH: B1 VH
VL: B1 VL with M11L, F87Y
In the case of B3, the EC50 in experiment [2] is 0.361 mg/L. In addition, in experiment [3], the binding result is “no binding (tested: 50 nM (highest analyte concentration))”. In experiment [4], this molecule registered a Kd of 2 nM, a koff of 0.0032 s⁻¹ and a kon of 1.6e+06 M⁻¹ s⁻¹.

B4: 900728 (humanized anti-CD73 antigen-binding protein) (antibody, V domains shown)
VH: B1 VH with L20V, K65Q, A68V, L70M
VL: B1 VL with M11L, F87Y
B4: the “Endocytosis rate (%)” value in experiment [1] turned out to be 33.9%. Besides, the EC50 in experiment [2] was found to be 0.29 mg/L. Moreover, in experiment [3], the binding result is reported as “no binding (tested: 50 nM (highest analyte concentration))”. In experiment [4], this molecule showed a Kd of 0.561 nM, a koff of 0.000381 s⁻¹ and an on-rate constant (kon) of 678000 M⁻¹ s⁻¹.

B5: 900567 (human-mouse chimeric anti-CD73 antigen-binding protein expressed from 124A9 variable regions) (antibody, V domains shown)
VH: QVQLQQPGAELVKPGASVKLSCKASGYTFTSYWIHWVKQRPGQGLDWIGMIHPNSGSTYYNEKFKSKATLTVDKSSSTAYMQLSSLTSEDSAVYYCARYYGSDYEWYFDVWGTGTTVTVSS
VL: DIVMTQSQKFMSTSVGDRVSITCKASQNVRTAVVWYQQNPGQSPKALIYLASNRHTGVPDRFTGSGSGTDFTLTISNVHSEDLADYFCLQHWNYPYTFGGGTKLEIK
Turning to B5, the “Endocytosis rate (%)” value in experiment [1] was found to be 26.9%. The EC50 in experiment [2] is 0.282 mg/L. The binding result in experiment [3] is “no binding (tested: 50 nM (highest analyte concentration))”. Besides, in experiment [4], the dissociation constant Kd came to 0.709 nM, the koff is 0.000606 s⁻¹ and the kon worked out at 855000 M⁻¹ s⁻¹.

The values are drawn from patent US20240067747A1 (SHANGHAI HUAOTA BIOPHARMACEUTICAL, published 2024).
